Laboratory results taken from article PMC9616523.

Key:
human FcγRIIIa (human) [1] = target: human FcγRIIIa (human) (UniProt P08637)
human FcγRI (human) = human FcγRI (human) (UniProt P12314); assay: SPR; Biacore T200; hFcγRI captured on an NTA chip loaded with Ni2+ (≈200 RU); AvFc flowed over, 5 concentrations from 324 nM in 1:3 dilutions; regeneration 350 mM EDTA; 1:1 binding model
human FcγRIIIa (human) [2] = target: human FcγRIIIa (human) (UniProt P08637); assay: SPR; Biacore T200; receptor captured by its 6xHis tag on an anti‐6xHis antibody amine‐coupled to a CM5 chip; AvFc variants flowed over, 5 concentrations from 2 μM in 1:2 dilutions, 30 μL/min, 240 s association, 600 s dissociation; 1:1 binding model
mouse FcγRIV (mouse) = assay: as above
mouse FcγRIV (mouse), sequence (A0A0B4J1G0 21-203): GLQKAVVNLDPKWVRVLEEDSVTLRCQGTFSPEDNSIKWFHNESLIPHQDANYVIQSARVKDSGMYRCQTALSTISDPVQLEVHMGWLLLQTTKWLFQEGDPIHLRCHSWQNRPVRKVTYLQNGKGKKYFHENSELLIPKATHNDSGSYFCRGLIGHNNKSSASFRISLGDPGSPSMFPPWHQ

human FcγRI (human), sequence (P12314 16-292): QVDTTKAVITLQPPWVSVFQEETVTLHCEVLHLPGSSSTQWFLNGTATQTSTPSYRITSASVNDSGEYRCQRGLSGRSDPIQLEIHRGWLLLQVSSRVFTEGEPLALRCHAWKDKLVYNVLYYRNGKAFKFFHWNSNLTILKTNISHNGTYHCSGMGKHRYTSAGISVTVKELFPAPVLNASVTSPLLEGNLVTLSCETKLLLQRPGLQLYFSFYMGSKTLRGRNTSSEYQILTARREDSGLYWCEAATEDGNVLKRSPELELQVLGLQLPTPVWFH

Row | Substance | ADCC reporter assay: luciferase in Jurkat effector cells expressing hFcγRIIIa, B16F10 target cells, AvFc 650 nM to 8.32 pM; EC50 (human FcγRIIIa (human) [1]) [nM] | ADCC reporter assay: luciferase in Jurkat effector cells expressing hFcγRIIIa, B16F10 target cells, AvFc 650 nM to 8.32 pM; highest luciferase induction (human FcγRIIIa (human) [1]) [fold] | fold increase in affinity over AvFc^WT (human FcγRI (human)) [fold] | fold increase in affinity over AvFc^WT (human FcγRIIIa (human) [2]) [fold] | fold increase in affinity over AvFc^WT (mouse FcγRIV (mouse)) [fold]
1 | Avaren‐Fc expressed in wild‐type N. benthamiana (AvFc^WT) (Fc fusion) | 13.8 | 2.9 |  |  | 
2 | Avaren‐Fc expressed in glycoengineered ΔXylT/ΔFucT N. benthamiana (AvFc^ΔXF) (Fc fusion) | 2.75 | 5.5 | 1.9 | 3.8 | 5.5
